# Measurements published in the supplement of paper PMC9112550, “Optimization of the antimicrobial peptide Bac7 by deep mutational scanning” (BMC Biology, 2022).
# System: Escherichia coli TOP10
# Assay: shrunken log2 fold change of peptide-encoding DNA abundance (4.5 h post-induction vs induction); higher = less antimicrobial activity (less host growth inhibition)
# Settings: time post-induction: 4.5 h; library: site-saturation at positions 5, 18, 19, 20
# 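Also: peptides expressed intracellularly from a pBAD plasmid library in pooled LB shake-flask culture, induced with 0.3% L-arabinose, DNA abundance read by NGS, three biological replicates, DESeq2 with apeglm shrinkage.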
row,Sequence,shrunken log2 fold change
1,RRIRRRPPRLPRPRPRPCDVPRP,-0.0838
2,RRIRRRPPRLPRPRPRPCEAPRP,0.127
3,RRIRRRPPRLPRPRPRPCFVPRP,0.0292
4,RRIRRRPPRLPRPRPRPCGAPRP,0.503
5,RRIRRRPPRLPRPRPRPCRCPRP,-0.00341
6,RRIRRRPPRLPRPRPRPCRIPRP,-0.0873
7,RRIRRRPPRLPRPRPRPCRWPRP,0.11
8,RRIRRRPPRLPRPRPRPCSIPRP,-0.0224
9,RRIRRRPPRLPRPRPRPCSMPRP,0.464
10,RRIRRRPPRLPRPRPRPCVVPRP,0.152
11,RRIRRRPPRLPRPRPRPCYCPRP,-0.00192
12,RRIRRRPPRLPRPRPRPCYQPRP,-0.16
13,RRIRRRPPRLPRPRPRPDAMPRP,0.336
14,RRIRRRPPRLPRPRPRPDCHPRP,0.619
15,RRIRRRPPRLPRPRPRPDCQPRP,-0.00305
16,RRIRRRPPRLPRPRPRPDDIPRP,-0.00879
17,RRIRRRPPRLPRPRPRPDDRPRP,0.0215
18,RRIRRRPPRLPRPRPRPDDYPRP,-0.377
19,RRIRRRPPRLPRPRPRPDGPPRP,0.215
20,RRIRRRPPRLPRPRPRPDICPRP,0.0657
21,RRIRRRPPRLPRPRPRPDKIPRP,0.402
22,RRIRRRPPRLPRPRPRPDKRPRP,-0.0396
23,RRIRRRPPRLPRPRPRPDLRPRP,0.398
24,RRIRRRPPRLPRPRPRPDLYPRP,0.0296
25,RRIRRRPPRLPRPRPRPDMMPRP,-0.137

row,Sequence,shrunken log2 fold change
1,RRIRRRPPRLPRPRPRPDNCPRP,-0.113
2,RRIRRRPPRLPRPRPRPDNDPRP,0.104
3,RRIRRRPPRLPRPRPRPDPKPRP,0.304
4,RRIRRRPPRLPRPRPRPDPMPRP,0.326
5,RRIRRRPPRLPRPRPRPDQDPRP,-0.0033
6,RRIRRRPPRLPRPRPRPDRAPRP,0.322
7,RRIRRRPPRLPRPRPRPDRCPRP,0.00426
8,RRIRRRPPRLPRPRPRPDTFPRP,0.025
9,RRIRRRPPRLPRPRPRPDTNPRP,1.31
10,RRIRRRPPRLPRPRPRPDVVPRP,-0.0225
11,RRIRRRPPRLPRPRPRPDWAPRP,-0.221
12,RRIRRRPPRLPRPRPRPDWNPRP,-0.223
13,RRIRRRPPRLPRPRPRPDWQPRP,0.399
14,RRIRRRPPRLPRPRPRPDYWPRP,0.0192
15,RRIRRRPPRLPRPRPRPECQPRP,0.253
16,RRIRRRPPRLPRPRPRPEEHPRP,0.107
17,RRIRRRPPRLPRPRPRPEGNPRP,-0.0565
18,RRIRRRPPRLPRPRPRPEICPRP,0.181
19,RRIRRRPPRLPRPRPRPEIPPRP,0.163
20,RRIRRRPPRLPRPRPRPENEPRP,0.119
21,RRIRRRPPRLPRPRPRPENHPRP,0.0228
22,RRIRRRPPRLPRPRPRPEPSPRP,0.228
23,RRIRRRPPRLPRPRPRPEPYPRP,0.0302
24,RRIRRRPPRLPRPRPRPERWPRP,0.613
25,RRIRRRPPRLPRPRPRPETFPRP,-0.0525

row,Sequence,shrunken log2 fold change
1,RRIRRRPPRLPRPRPRPETRPRP,0.644
2,RRIRRRPPRLPRPRPRPEVKPRP,0.418
3,RRIRRRPPRLPRPRPRPEWCPRP,0.17
4,RRIRRRPPRLPRPRPRPEWNPRP,0.471
5,RRIRRRPPRLPRPRPRPEYRPRP,-0.0195
6,RRIRRRPPRLPRPRPRPFADPRP,-0.0461
7,RRIRRRPPRLPRPRPRPFFSPRP,0.043
8,RRIRRRPPRLPRPRPRPFHPPRP,0.111
9,RRIRRRPPRLPRPRPRPFIAPRP,-0.253
10,RRIRRRPPRLPRPRPRPFITPRP,-0.257
11,RRIRRRPPRLPRPRPRPFKDPRP,-0.11
12,RRIRRRPPRLPRPRPRPFKIPRP,-0.00337
13,RRIRRRPPRLPRPRPRPFLHPRP,0.0267
14,RRIRRRPPRLPRPRPRPFMEPRP,0.0534
15,RRIRRRPPRLPRPRPRPFMNPRP,0.0829
16,RRIRRRPPRLPRPRPRPFMTPRP,0.0665
17,RRIRRRPPRLPRPRPRPFPQPRP,0.441
18,RRIRRRPPRLPRPRPRPFQFPRP,-0.0742
19,RRIRRRPPRLPRPRPRPFRFPRP,0.506
20,RRIRRRPPRLPRPRPRPFRLPRP,-0.143
21,RRIRRRPPRLPRPRPRPFSNPRP,-0.0243
22,RRIRRRPPRLPRPRPRPFSQPRP,-0.422
23,RRIRRRPPRLPRPRPRPFTDPRP,-0.0197
24,RRIRRRPPRLPRPRPRPFTQPRP,-0.223
25,RRIRRRPPRLPRPRPRPFTSPRP,-0.0327

row,Sequence,shrunken log2 fold change
1,RRIRRRPPRLPRPRPRPFVAPRP,0.354
2,RRIRRRPPRLPRPRPRPFVPPRP,0.127
3,RRIRRRPPRLPRPRPRPFVQPRP,-0.0288
4,RRIRRRPPRLPRPRPRPFVRPRP,-0.174
5,RRIRRRPPRLPRPRPRPFWCPRP,-0.18
6,RRIRRRPPRLPRPRPRPFYSPRP,-0.307
7,RRIRRRPPRLPRPRPRPGCTPRP,0.183
8,RRIRRRPPRLPRPRPRPGCWPRP,0.561
9,RRIRRRPPRLPRPRPRPGEAPRP,0.752
10,RRIRRRPPRLPRPRPRPGETPRP,0.309
11,RRIRRRPPRLPRPRPRPGGAPRP,0.492
12,RRIRRRPPRLPRPRPRPGGFPRP,0.36
13,RRIRRRPPRLPRPRPRPGGIPRP,0.0225
14,RRIRRRPPRLPRPRPRPGGTPRP,0.245
15,RRIRRRPPRLPRPRPRPGHEPRP,0.00414
16,RRIRRRPPRLPRPRPRPGLYPRP,0.305
17,RRIRRRPPRLPRPRPRPGNCPRP,0.177
18,RRIRRRPPRLPRPRPRPGNDPRP,-0.0382
19,RRIRRRPPRLPRPRPRPGNFPRP,0.155
20,RRIRRRPPRLPRPRPRPGQGPRP,0.278
21,RRIRRRPPRLPRPRPRPGQSPRP,0.155
22,RRIRRRPPRLPRPRPRPGSEPRP,0.00207
23,RRIRRRPPRLPRPRPRPGSRPRP,0.155
24,RRIRRRPPRLPRPRPRPGVMPRP,0.245
25,RRIRRRPPRLPRPRPRPGVSPRP,0.249

row,Sequence,shrunken log2 fold change
1,RRIRRRPPRLPRPRPRPGWEPRP,0.393
2,RRIRRRPPRLPRPRPRPGWMPRP,0.0476
3,RRIRRRPPRLPRPRPRPHARPRP,0.586
4,RRIRRRPPRLPRPRPRPHCRPRP,0.103
5,RRIRRRPPRLPRPRPRPHDFPRP,0.103
6,RRIRRRPPRLPRPRPRPHDPPRP,-0.0379
7,RRIRRRPPRLPRPRPRPHFKPRP,-0.0168
8,RRIRRRPPRLPRPRPRPHFWPRP,0.51
9,RRIRRRPPRLPRPRPRPHGGPRP,0.0449
10,RRIRRRPPRLPRPRPRPHGLPRP,0.217
11,RRIRRRPPRLPRPRPRPHHTPRP,-0.408
12,RRIRRRPPRLPRPRPRPHIHPRP,-0.674
13,RRIRRRPPRLPRPRPRPHKDPRP,-0.11
14,RRIRRRPPRLPRPRPRPHKSPRP,-0.0141
15,RRIRRRPPRLPRPRPRPHLIPRP,-0.293
16,RRIRRRPPRLPRPRPRPHMMPRP,0.176
17,RRIRRRPPRLPRPRPRPHPWPRP,0.25
18,RRIRRRPPRLPRPRPRPHRRPRP,-0.000685
19,RRIRRRPPRLPRPRPRPHTAPRP,0.313
20,RRIRRRPPRLPRPRPRPHVAPRP,-0.138
21,RRIRRRPPRLPRPRPRPHVGPRP,0.0734
22,RRIRRRPPRLPRPRPRPHVIPRP,-0.0937
23,RRIRRRPPRLPRPRPRPHYQPRP,-0.319
24,RRIRRRPPRLPRPRPRPHYRPRP,-0.306
25,RRIRRRPPRLPRPRPRPHYTPRP,-0.313

row,Sequence,shrunken log2 fold change
1,RRIRRRPPRLPRPRPRPIANPRP,-0.195
2,RRIRRRPPRLPRPRPRPIASPRP,0.432
3,RRIRRRPPRLPRPRPRPICEPRP,0.356
4,RRIRRRPPRLPRPRPRPICFPRP,0.496
5,RRIRRRPPRLPRPRPRPICSPRP,0.0991
6,RRIRRRPPRLPRPRPRPIDLPRP,-0.115
7,RRIRRRPPRLPRPRPRPIDSPRP,-0.0316
8,RRIRRRPPRLPRPRPRPIGKPRP,-0.0155
9,RRIRRRPPRLPRPRPRPIGLPRP,-0.0953
10,RRIRRRPPRLPRPRPRPIHAPRP,-0.102
11,RRIRRRPPRLPRPRPRPIHDPRP,0.169
12,RRIRRRPPRLPRPRPRPIIDPRP,-0.125
13,RRIRRRPPRLPRPRPRPIIEPRP,0.0476
14,RRIRRRPPRLPRPRPRPIIPPRP,-0.36
15,RRIRRRPPRLPRPRPRPILGPRP,0.0385
16,RRIRRRPPRLPRPRPRPILLPRP,-0.149
17,RRIRRRPPRLPRPRPRPIMLPRP,-0.272
18,RRIRRRPPRLPRPRPRPIMMPRP,-0.00819
19,RRIRRRPPRLPRPRPRPINSPRP,-0.314
20,RRIRRRPPRLPRPRPRPINVPRP,-0.326
21,RRIRRRPPRLPRPRPRPINWPRP,-0.0685
22,RRIRRRPPRLPRPRPRPIQAPRP,-0.0046
23,RRIRRRPPRLPRPRPRPIRLPRP,-0.104
24,RRIRRRPPRLPRPRPRPIRPPRP,0.198
25,RRIRRRPPRLPRPRPRPIRRPRP,-0.0312
